According to patent US20130040994A1:

Molecular target: quenched fluorescein gelatin substrate (DQ gelatin, Invitrogen D12054)

catalytic rat MMP9 (80 kD active MMP9) (enzyme), sequence (P50282 108-708 limits assumed): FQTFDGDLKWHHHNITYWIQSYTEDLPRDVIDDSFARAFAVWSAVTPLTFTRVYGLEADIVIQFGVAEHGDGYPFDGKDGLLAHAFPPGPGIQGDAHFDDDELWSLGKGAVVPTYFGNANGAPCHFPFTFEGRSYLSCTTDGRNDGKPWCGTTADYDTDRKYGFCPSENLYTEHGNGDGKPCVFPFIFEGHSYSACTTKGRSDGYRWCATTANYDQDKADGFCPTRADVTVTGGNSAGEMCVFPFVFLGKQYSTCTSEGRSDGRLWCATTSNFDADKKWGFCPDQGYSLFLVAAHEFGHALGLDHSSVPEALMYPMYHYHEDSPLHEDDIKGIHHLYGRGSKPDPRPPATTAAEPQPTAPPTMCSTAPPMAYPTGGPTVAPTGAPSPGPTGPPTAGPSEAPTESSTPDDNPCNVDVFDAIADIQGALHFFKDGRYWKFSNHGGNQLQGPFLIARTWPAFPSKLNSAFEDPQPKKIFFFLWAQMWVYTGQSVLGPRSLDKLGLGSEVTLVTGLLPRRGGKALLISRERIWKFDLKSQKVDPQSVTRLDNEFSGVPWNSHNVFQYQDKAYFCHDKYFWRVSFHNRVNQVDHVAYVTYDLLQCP

## catalytic rat MMP9 (80 kD active MMP9) (enzyme)
  gelatinase activity by in situ zymography, Intensity (RLU × 10^6), Mean: 1.09e+08 RLU
